Laboratory results: ChEMBL document CHEMBL2074313, “Polyspecific substrate uptake by the hepatic organic anion transporter Oatp1 in stably transfected CHO cells” (Am J Physiol, 1999)

Key:
Type in all cases: functional, cell-based
[1] = molecular target: T1, Oatp1 (Solute carrier organic anion transporter family member 1A1) (Rattus norvegicus, UniProt P46720); experiment: (§1) TP_TRANSPORTER: uptake in Oatp1-expressing CHO-03 cell; settings: hamster, CHO-03 cells expressing Oatp1
T1 sequence (P46720 whole entry): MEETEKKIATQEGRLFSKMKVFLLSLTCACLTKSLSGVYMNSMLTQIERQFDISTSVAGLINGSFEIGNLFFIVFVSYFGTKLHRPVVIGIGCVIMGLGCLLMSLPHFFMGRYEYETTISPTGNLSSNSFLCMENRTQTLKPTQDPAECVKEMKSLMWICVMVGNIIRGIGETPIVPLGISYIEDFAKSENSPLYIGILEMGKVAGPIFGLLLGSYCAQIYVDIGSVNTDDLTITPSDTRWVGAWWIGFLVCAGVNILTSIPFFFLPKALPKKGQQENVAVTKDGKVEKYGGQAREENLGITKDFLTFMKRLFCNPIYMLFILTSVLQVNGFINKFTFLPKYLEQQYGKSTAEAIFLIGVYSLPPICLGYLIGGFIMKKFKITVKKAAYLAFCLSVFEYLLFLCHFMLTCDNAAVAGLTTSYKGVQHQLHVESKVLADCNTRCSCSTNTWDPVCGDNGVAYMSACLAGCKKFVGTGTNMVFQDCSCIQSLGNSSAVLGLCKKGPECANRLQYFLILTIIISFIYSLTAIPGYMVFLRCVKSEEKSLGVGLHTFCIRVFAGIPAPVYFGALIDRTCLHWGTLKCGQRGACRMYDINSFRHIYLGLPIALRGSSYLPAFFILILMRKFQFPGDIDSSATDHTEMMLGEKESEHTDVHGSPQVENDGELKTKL

[2] = substrate: COc1cc(C)c(S(=O)(=O)N[C@@H](CC(=O)O)C(=O)N[C@H](Cc2ccc(C(=N)N)cc2)C(=O)N2CCCCC2)c(C)c1C; experiment: as §1
[3] = substrate: C[C@H](CCC(=O)NCCS(=O)(=O)O)[C@H]1CC[C@H]2[C@@H]3[C@@H](O)C[C@@H]4C[C@H](O)CC[C@]4(C)[C@H]3CC[C@]12C; experiment: as §1
[4] = substrate: C[C@H](CCC(=O)NCCS(=O)(=O)O)[C@H]1CC[C@H]2[C@@H]3[C@H](O)C[C@@H]4C[C@H](O)CC[C@]4(C)[C@H]3CC[C@]12C; experiment: as §1
[5] = substrate: [H][C@@]12CC=C3C[C@@H](OS(=O)(=O)O)CC[C@]3(C)[C@@]1([H])CC[C@]1(C)C(=O)CC[C@@]21[H]; experiment: as §1
[6] = substrate: C[C@]12CC[C@@H]3c4ccc(O)cc4CC[C@H]3[C@@H]1CC[C@@H]2O[C@@H]1O[C@H](C(=O)O)[C@@H](O)[C@H](O)[C@H]1O; experiment: as §1
[7] = substrate: O=C1OC(c2ccc(O)c(S(=O)(=O)O)c2)(c2ccc(O)c(S(=O)(=O)O)c2)c2c(Br)c(Br)c(Br)c(Br)c21; experiment: as §1
[8] = substrate: C[C@]12CC[C@@H]3c4ccc(OS(=O)(=O)O)cc4CC[C@H]3[C@@H]1CCC2=O; experiment: as §1

C[C@@H]1O[C@@H](O[C@H]2C[C@@H](O)[C@]3(CO)[C@H]4[C@H](O)C[C@]5(C)[C@@H](C6=CC(=O)OC6)CC[C@]5(O)[C@@H]4CC[C@]3(O)C2)[C@H](O)[C@H](O)[C@H]1O [OUABAIN]
Km [1]: 3000 µM

C[C@@H]1Cc2c(Cl)cc(C(=O)N[C@@H](Cc3ccccc3)C(=O)O)c(O)c2C(=O)O1 [3R14S-OCHRATOXIN A]
Km [1]: 29 µM

B1: Solute carrier organic anion transporter family member 1A1 (Rattus norvegicus) (protein)
chain: T1 sequence (P46720 whole entry)
Km [2]: 57 µM
Km [3]: 13 µM
Km [4]: 7 µM
Km [5]: 5 µM
Km [6]: 4 µM
Km [7]: 3 µM
Km [8]: 11 µM
